Experimental data taken from patent publication US11504389.

How the values were obtained:
Assay in all cases: cell_activity
[1] = test system: ZFP SBS#57890 (synthetic); details: human iPSC neurons, 3E5 VG/cell; poor mismatch tolerance
[2] = test system: ZFP SBS#52389 (synthetic); details: AAV2/9 CMV-52389-KRAB, 3E5 VG/cell, mouse cortical neurons
[3] = test system: ZFP SBS#57880 (synthetic); details: human iPSC neurons, 3E5 VG/cell
[4] = test system: ZFP SBS#52322 (synthetic); details: mouse hippocampus in vivo, mean MAPT mRNA reduction
[5] = test system: ZFP SBS#52366 (synthetic); details: human iPSC neurons, 3E5 VG/cell

ACCCACCAGCTCCGGCAC (double strand) [57890 human MAPT site]
activity [1]: 45 % repression

CCGTTGCGCCTGATTGATGCCCAGCTCC (double strand) [52389 target]
activity [2]: 98 % repression

GCAGTCACCGCCACCCACC (double strand) [57880 human MAPT site]
activity [3]: 95 % repression

GTGGCGGAGACTGAGAGCGCGCGCGGCC (double strand) [52322 target]
activity [4]: 66 % repression

TCTGTCGACTATCAG (double strand) [52366 human MAPT site]
activity [5]: 87 % repression
